This is an account of results in US12006530B2, “Streptococcal proteases” (priority 2016, dated 2024).

One data set relates to IgG in human serum. The data set is described as follows: Ig cleavage in human serum, anti-IgG Western blot. In kind it is biochemical. The method, then:
(§1) (A) rIgdEagalactiae was incubated with polyclonal IgG of six different species for 18 h at 37° C. and analyzed by SDS-PAGE under reducing conditions. Degradation products are indicated by asterisks (*). Images of different gels have been used to create the figure. (B) rIgdEagalactiae was incubated with human or bovine serum for 18 h in 37° C. and analyzed by SDS-PAGE under reducing conditions. Degradation products are indicated by asterisks (*). (C) Western Blot with crude extracts of rIgdEagalactiae incubated with human and porcine serum for 18 h in 37° C. Membrane was treated with antibodies against human and porcine polyclonal IgG respectively. Degradation products are indicated by asterisks (*). (D) rIgdEagalactiae was incubated with subclasses of human IgG as well as human IgA and IgM for 18 h in 37° C. and analyzed by SDS-PAGE under reducing conditions. Degradation products are indicated by asterisks (*). Images of different gels have been used to create the figure.

Another data set deals with T1, human serum IgG1 (Homo sapiens, UniProt P01857).
T1 construct: Human serum and monoclonal human IgG1 were incubated in presence (+) or absence (−) of rIgdEagalactiae; from tissue; host or cells: human serum
The data set is described as follows: Degradation of human serum IgG1, non-reducing Western blot. In kind it is biochemical. Particulars: 18 h at 37° C. How it is done: Human serum and monoclonal human IgG1 were incubated in presence (+) or absence (−) of rIgdEagalactiae for 18 h at 37° C. and analyzed by Western blot under non-reducing conditions with a human IgG-specific antibody.
Background: Immunoblotting shows a protein as a band on a membrane.

In the next data set the test system is monoclonal human IgG1. Nature of the data set: Cleavage of human IgG subclasses, SDS-PAGE. Format: biochemical. Particulars: 18 h, 37° C., reducing SDS-PAGE. How it is done: as §1
The test system of a further data set is monoclonal human IgG2. The data set is described as follows: Cleavage of human IgG subclasses, SDS-PAGE. Particulars: 18 h, 37° C., reducing SDS-PAGE. In kind it is biochemical. How it is done: as §1
A further data set concerns the target monoclonal human IgG3 (Homo sapiens, UniProt P01860). The data set is described as follows: Cleavage of human IgG subclasses, SDS-PAGE. In kind it is biochemical. Particulars: 18 h, 37° C., reducing SDS-PAGE. How it is done:
as §1

A further data set has as its target monoclonal human IgG4 (Homo sapiens, UniProt P01861). Nature of the data set: Cleavage of human IgG subclasses, SDS-PAGE. Format: biochemical. Particulars: 18 h, 37° C., reducing SDS-PAGE. The method, then:
as §1

The subject of a further data set is IgG. The data set is described as follows: IgG degrading cysteine protease activity: specificity as summarised. The following applies: summary statement. Format: biochemical. The text has this: Typically, polypeptides for use in accordance with the invention display immunoglobulin cysteine protease activity, and in particular IgG degrading cysteine protease activity. Preferably, the polypeptide cleaves IgG in the hinge region and more particularly in the hinge region of the heavy chain. Preferably, cleavage results in production of Fc and Fab fragments of IgG. Preferably the activity is specific for IgG. The IgG degrading cysteine protease activity may be determined by means of a suitable assay. For example, a test polypeptide may be incubated with IgG at a suitable temperature, such as 37° C. The starting materials and the reaction products may then be analysed by SDS PAGE to determine whether the desired IgG cleavage product is present. Typically this cleavage product is a 32 kDa fragment. Typically there is no further degradation of IgG after this first cleavage. The cleavage product may be subjected to N-terminal sequencing to verify that cleavage has occurred in the hinge region of IgG.
The IgG degrading cysteine protease activity of the polypeptides is generally IgG-specific in that the polypeptides may not degrade other classes of Ig, namely IgM, and IgA, when incubated with these immunoglobulins under conditions that permit cleavage of IgG.

A further data set relates to horse IgG. Nature of the data set: IgG cleavage by IgdE, SDS-PAGE. In kind it is biochemical. Particulars: purified polyclonal IgG, reducing SDS-PAGE. How it is done:
(§2) 0.5 mg/ml of porcine IgG (Sigma) in PBS or of other species (human, goat, cow, horse and mouse; all Sigma) were incubated with either crude extracts of induced E. coli carrying S. suis IgdE constructs mentioned above or 10 nM purified rIgdE for 16 h at 37° C. prior subjection to SDS-PAGE under either reducing or non-reducing conditions.
(§3) Samples for SDS-PAGE were prepared with either reducing or non-reducing sample buffer and heated to 95° C. for 5 min. 12% SDS-PAGE was either stained with Coomassie blue (Sigma), Coomassie Fluor™ Orange Protein Gel Stain (Invitrogen) or blotted to Hybond-P PVDF membrane (GE Healthcare) for western blot analyses. Membranes were blocked with 5% dry milk powder in 0.1% PBS-Tween, followed by incubation with horse-radish peroxidase conjugated antibodies. Goat anti-pig IgG-HRP (Thermo Scientific) and goat anti-porcine IgM-HRP (Thermo Scientific) was diluted 1:25′000 and goat anti-porcine IgA-HRP (Thermo Scientific) was diluted 1:12′500. Membranes were thoroughly washed with 0.1% PBS-Tween prior to development with Amersham ECL Select Western blotting detection reagent (GE Healthcare) according to manufactures instruction and pictured by LAS4000 imaging system (Fujifilm).

In the next data set the test system is goat IgG. Nature of the data set: IgG cleavage by IgdE, SDS-PAGE. Format: biochemical. Particulars: purified polyclonal IgG, reducing SDS-PAGE. The method, then:
as §2, §3

A further data set concerns cow IgG. Nature of the data set: IgG cleavage by IgdE, SDS-PAGE. Format: biochemical. Particulars: purified polyclonal IgG, reducing SDS-PAGE. How it is done:
as §2, §3

Another data set relates to mouse IgG. Nature of the data set: IgG cleavage by IgdE, SDS-PAGE. Format: biochemical. Particulars: purified polyclonal IgG, reducing SDS-PAGE. The method, then:
as §2, §3

For data set [1], the system named is porcine IgG. Nature of the data set: IgG cleavage by IgdE, SDS-PAGE. In kind it is biochemical, pig. Particulars: purified polyclonal IgG, reducing SDS-PAGE. The method, then: (A) Schematic illustration of IgdE and the different rIgdE constructs with potential active site residues substitutions and the C-terminal truncation variant. The secretion signal peptide (residues 1-37) is marked in light grey, the transglutaminase domain is boxed and the potential active site residues and substitutions are indicated. (B) 3.3 μM porcine IgG was incubated for 16 h at 37° C. with soluble fractions of E. coli cells expressing different rIgdE constructs. The reaction was analyzed SDS-PAGE under reducing conditions. […] The weak protein band of 37 kDa is a contaminant present in lysate preparation and not related to IgdE activity.
as §2, §3

Another data set concerns human IgG. The data set is described as follows: IgG cleavage by IgdE, SDS-PAGE. Format: biochemical. The following applies: purified polyclonal IgG, reducing SDS-PAGE. How it is done: as §1, §2, §3
Another data set deals with porcine IgA. The data set is described as follows: Ig cleavage in porcine plasma or serum, anti-IgA Western blot. In kind it is biochemical, pig. The method, then: (§4) (A) 2% porcine plasma was incubated with (+) or without (−) 10 nM purified rIgdE.
(§5) The reaction was analyzed by anti-porcine IgG, IgM and IgA Western blots under reducing conditions. Only cleavage of IgG was observed (*). (B) 0.5 mg/ml IgG of different species was incubated with (+) or without (−) 10 nM purified rIgdE and analyzed by SDS-PAGE under reducing conditions. No cleavage of IgG derived from any other species than pig (*) was observed. The weak protein band of 37 kDa is a contaminant present in lysate preparation (see lane 2) and not related to IgdE activity. Images of different gels have been assembled into one figure.
as §3, with “Membranes were thoroughly washed with 0.1% PBS-Tween prior to development with Amersham ECL Select Western blotting detection reagent (GE Healthcare) according to manufactures instruction and pictured by LAS4000 imaging system (Fujifilm).” left out

The test system of data set [2] is porcine IgG. Nature of the data set: Ig cleavage in porcine plasma or serum, anti-IgG Western blot. In kind it is biochemical, pig. The method, then: as §4, §5
as §3, with “Membranes were thoroughly washed with 0.1% PBS-Tween prior to development with Amersham ECL Select Western blotting detection reagent (GE Healthcare) according to manufactures instruction and pictured by LAS4000 imaging system (Fujifilm).” left out

monoclonal human IgG3, sequence (P01860 1-377 isoform P01860-1): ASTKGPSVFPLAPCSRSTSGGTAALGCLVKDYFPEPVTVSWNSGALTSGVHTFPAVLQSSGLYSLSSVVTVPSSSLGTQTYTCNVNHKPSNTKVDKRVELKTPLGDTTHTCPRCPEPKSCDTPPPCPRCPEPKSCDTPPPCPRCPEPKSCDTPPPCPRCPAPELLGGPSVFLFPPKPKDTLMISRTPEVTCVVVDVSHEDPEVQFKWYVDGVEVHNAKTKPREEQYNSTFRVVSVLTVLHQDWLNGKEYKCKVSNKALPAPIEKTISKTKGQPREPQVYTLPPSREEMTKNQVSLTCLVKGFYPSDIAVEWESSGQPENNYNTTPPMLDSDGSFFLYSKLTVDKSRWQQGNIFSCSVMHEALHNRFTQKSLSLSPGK
T1 sequence (P01857 1-330 isoform P01857-1): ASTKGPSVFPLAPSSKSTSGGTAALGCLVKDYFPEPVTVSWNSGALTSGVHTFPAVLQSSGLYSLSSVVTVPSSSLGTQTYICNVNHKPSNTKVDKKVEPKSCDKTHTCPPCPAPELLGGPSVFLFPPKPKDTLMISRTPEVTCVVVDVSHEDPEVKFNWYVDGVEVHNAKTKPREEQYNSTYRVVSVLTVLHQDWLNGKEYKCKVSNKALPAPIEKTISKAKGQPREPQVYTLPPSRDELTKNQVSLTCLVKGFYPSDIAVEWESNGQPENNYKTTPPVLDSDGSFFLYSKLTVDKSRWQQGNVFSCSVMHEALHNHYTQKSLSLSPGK
monoclonal human IgG4, sequence (P01861 1-327 isoform P01861-1): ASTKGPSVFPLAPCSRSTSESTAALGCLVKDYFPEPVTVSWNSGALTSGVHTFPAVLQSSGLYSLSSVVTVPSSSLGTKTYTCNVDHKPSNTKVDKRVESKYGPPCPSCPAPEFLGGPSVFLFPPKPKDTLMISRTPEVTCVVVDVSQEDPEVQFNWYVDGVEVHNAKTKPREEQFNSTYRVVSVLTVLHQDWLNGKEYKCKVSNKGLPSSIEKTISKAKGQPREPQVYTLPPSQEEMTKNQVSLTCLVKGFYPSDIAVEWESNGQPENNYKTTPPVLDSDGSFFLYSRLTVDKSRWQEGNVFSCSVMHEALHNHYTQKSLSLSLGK

B1: IgdEagalactiae: IgdE isolated from S. agalactiae strain CCUG4208, SEQ ID NO: 3 (protein, listed as Streptococcus agalactiae)
chain: NQNNIQETNLVEKNSEDKFIQELNRYKTEIPNFKGFNVWILGDKGYYKNLINLEEIKNIQATLKKERNEEYVFVKLNGKIAHDTTVFLMNKKHKLLKNIEEFKTITQKRLTERGKFPYDTVHSTFEIKDENFIMERLKSSGLSMGKPVDYMGVNGIPIYTKTLSIDNKFAFENNSKDSSYSSNINISEDKIKENDQKILDLIVKSGANNQNLTDEEKVIAFTKYIGEITNYDNEAYRARNVDTEYYRASDLFSVTERKLAMCVGYSVTAARAFNIMGIPSYVVSGKSPQGISHAAVRAYYNRSWHIIDITASTYWKNGNYKTTYSDFIKEYCIDGYDVYDPAKTNNRFKVKYMESNEAFENWIHNNGSKSMLFINESAALKDKKPKDDFVPVTEKEKNELIDKYKKLLSQIPENTQNPGEKNIRDYLKNEYEEILKKDNLFEHEHAEFKESLNLNESFYLQLKKEEKKPSDNLKKEEKPRENSVKERETPAENNDFVSVTEKNNLIDKYKELLSKIPENTQNPGEKNIRNYLEKEYEELLQKDKLFKHEYTEFTKSLNLNETFYSQLKEGEMKLSENPEKGETNTN
As to B1, the “cleavage of IgG in human serum” value with IgG in human serum is reported as “cleaved IgG in human serum”. In addition, the “degradation of human serum IgG1” value in the data set with human serum IgG1 is “degrades human serum IgG1 completely to single cleaved IgG1”. Besides, in the data set on monoclonal human IgG1, the “cleavage of monoclonal human IgG1 kappa (32 kDa degradation product)” value is recorded as “cleaved” and the “cleavage of monoclonal human IgG1 lambda (32 kDa degradation product)” value is “cleaved”. Besides, the “cleavage of monoclonal human IgG2” value in the data set with monoclonal human IgG2 is “No degradation product was observed”. In addition, the “cleavage of monoclonal human IgG3” value with monoclonal human IgG3 is “No degradation product was observed”. In the data set with monoclonal human IgG4, the “cleavage of monoclonal human IgG4” value is listed as “No degradation product was observed”. Further, the “immunoglobulin specificity of the IgG degrading cysteine protease activity” value in the data set with IgG is “specific for human IgG, and specifically human IgG1”. The “cleavage of polyclonal horse IgG” value with horse IgG is given as “No degradation product was observed”. In addition, in the data set with goat IgG, the “cleavage of polyclonal goat IgG” value is given as “No degradation product was observed”. For the same molecule, the “cleavage of polyclonal cow IgG” value in the data set on cow IgG is given as “No degradation product was observed”. Besides, the “cleavage of polyclonal mouse IgG” value with mouse IgG was “No degradation product was observed”. For the same molecule, the “cleavage of polyclonal porcine IgG (32 kDa degradation product)” value with porcine IgG [1] is “No degradation product was observed”. The “cleavage of polyclonal human IgG (32 kDa degradation product)” value in the data set on human IgG was “cleaved”.

B2: IgdEporcinus: IgdE isolated from S. porcinus strain DSM20725, SEQ ID NO: 5 (protein, listed as Streptococcus porcinus)
chain: AVLARENSNSGQLHPEARQIKAVDFQEFSKKLKEEISENQQFHVFKLGMNNYYRSGIRINELNNLATEHDFILVNDHASHKKYDVPHIFIMNKGDVIVPSKEKYDEQMREVKFAGDQPNAQRQRIHALFEIGLDSNKRQLLNAAGLGTAENTLAKVDGFTIYSHGLTVDNKYYEDYIRFNKNENINITKERFTANDNLIHNLITESTAKVQTNDRDKVKAFVMYVANHTIYDWIAANNAVSNISDVNYYLGSDLFSITERKKAMCVGFSTTAARAFNMLGIPAYVVVGKNAQGVDHATARAYYNGKWHTIDGTGFINDKASRSTIYSENHFYSIGEDSYNIVDVNDEQIAFDKNYMKIDKVFEEWAQKQPTADLLLINKDKSLVPSNYVAYVAPVIVDNNRKGSLTQIYQNLKQVMESSSQKASLTSLLNTATADIAKLQTSSQLTQEDYNQIQNSMKSVLSFFWQLDKDSATNFENSEDYKKYLTETKNAGN
As to B2, in the data set with IgG, the “immunoglobulin specificity of the IgG degrading cysteine protease activity” value is reported as “specific for porcine IgG”. Also, the “cleavage of polyclonal horse IgG” value in the data set with horse IgG is on record as “No degradation product was observed”. Besides, the “cleavage of polyclonal goat IgG” value in the data set on goat IgG is reported as “No degradation product was observed”. In addition, the “cleavage of polyclonal cow IgG” value in the data set on cow IgG is on record as “No degradation product was observed”. The “cleavage of polyclonal mouse IgG” value in the data set with mouse IgG is “No degradation product was observed”. The “cleavage of IgA in porcine plasma or serum” value in the data set on porcine IgA is recorded as “but not IgM or IgA”. For the same molecule, the “cleavage of polyclonal porcine IgG (32 kDa degradation product)” value in the data set on porcine IgG [1] is recorded as “cleaved”. Further, the “cleavage of IgG in porcine plasma or serum” value in the data set with porcine IgG [2] is “cleaved IgG in porcine serum”. Further, in the data set with human IgG, the “cleavage of polyclonal human IgG (32 kDa degradation product)” value was “No degradation product was observed”.
